Results from the DeepSol protein solubility set.

assay: soluble on expression in E. coli; label from the status in PepcDB or PDB records

Sequence	soluble on expression in E. coli
MSLAQSVAGSSVLTPGLTVSGPHSHARHSATLPSAMTAFPAAPDLAPPSRAAQGERVLCAMSGGVDSSVTASLLKEQGYQVIGAMMRFWPDDKRTDTFDSCCSPDAAYEARRVAEQVGVPFYLLDYREPFQRHIVGPFLEEYARGRTPNPCVNCNTKVKFDELVKKAKMLGCRYVATGHYVKRVDNAQGEVEFHRGDDPRKDQTYFLWGTPRDALPYILFPVGELEKPQVREIAAERGLLTAQKPESQNICFVPGKVQDFVAEHLPQAQGYIREIATGEVVGEHLGTQFYTLGQKKGLGLYQSHRVRHVVHLDPDSNTVWVGDYDDCLWTGLKATDANYLLDLAELPTELEVQVRYRTAPVKAHVLHADAEGFELEFAEPQFAVAPGQSAVLYAGSRLLGGGLIADHARELPALTEGHHHHHH	soluble
SNAMLFDEKEILAITRWAKLYANQSPDRILLGSNDIPPEYRAAVATQIELWPRLRNKLPQWAGISSLYIPSRLSLEQSSGAVTSSYKSRFIREGTKVVDLTGGLGIDFIALMSKASQGIYIERNDETAVAARHNIPLLLNEGKDVNILTGDFKEYLPLIKTFHPDYIYVDPARRSGADKRVYAIADCEPDLIPLATELLPFCSSILAKLSPMIDLWDTLQSLLHVQELHVVAAHGEVKELLVRMSLNEATIPPEKVPIHAINLLLEDTVIPFIFTMEEERSISIPYTDSIDKYVYEPHTALLKAGAFKTVAYRLGLRKLHPNSHLYTSEAYESAFPGRTFVLEEIIPFSTSVLKQLRKVVPQASISCRNFPLSPIELRQRSKMADGGEKTLMGTTMADGKKVLLLLRKAE	soluble
MGSSHHHHHHSSGLVPRGSHMASMTEQRTKYADSILTTKSPYEATETIRIRLSQVKLLNKDFYLLFKELANLKRNYAQQLRKIIAENEDITKILNAQMIESNVLTPQEMSAFRFNSLGELRNVWDTVIEELKSDLKSSTEYYNTLDQQVVRELKESVENNTSWRESKDLHSKLSKNAASIEHYSKNNENSSHLEEARRQWDQQSPYLFELFETIDYNRLDTLKNCMLRFQTSFSDYLLNTTKECETVMTKFLAFEPQSEIDRFAKDASQYNFQLSSSSKEVVPNNAS	soluble
MGHHHHHHSHMISAHRNLHLPGSSNSPASAFLSSWDYRHVPPCPANVVFLVEMGFLHVGQAGLELPTSDDPPTLASQSAGITGVSHRTWQEFASLTVSQAVLRMLVWGPQFENHCSKLLMASEGDSSLVFFLYPLSNLN	not soluble
MCAALKRCAYRHKGKIMENTNIVTTEQQAPNTISASNAIFNVQALGQLTAFANLMADSQVTVPAHLAGKPADCMAIVMQAMQWGMNPYAVAQKTHLVNGVLGYEAQLVNAVIASSSAIHGRFHYRYGGDWERCTRTQEITRDKNGKNGKYTVTERVRGWTDEDEIGLFVQVGAILRGESEITWGEPLYLSGVVTRNSPLWVSNPKQQIAYLGVKYWARLYCPEVILGVYSPDEVEQREEREINPAPVQRMSVQEITSEVSTRTSAQESAANVDAVADDLRERIDTASSVDQAKAIRADIESQKALLGTALFTELKNKAVKRYYQVNAQNKVEAVINSIPNPGEPEAAEMFAKAESTLGAAKRHLGDELHDKYRVTLDDMKPEYIG	not soluble
MRKAHIMGIEGVGMSALARLLMAEGVAVTGCDLAPGPRARRLGVPVHHGHDPGHLADEDTLVVPTPVPPDHPEVVEARKRGLRVLRRMELLAHFLAQRPSAGVTGTHGKTTTTGMLAAILLEAGLDPWVFLGGELALLPGNARPGRGPRVAEVDESDPLFREVRVSVAVATNLEADHVAPRGERAPNYHESLEALKEAMRGFLAGAKTVVVPAMDPGLLALTEGLPRRLFGPGGEVWAEAVDLSPSGASFRLVHREGPLGEVHLRVPGRHNVHNALAAALAALALGASPEAISRGLSRFPGVGRRFERVGEVGGAWVVDDYAHHPTEVQATLEAALLSGRRVRVFFQPHRLLRTQELWEAFAQALKGAHEVVVLPVYTAGERGRESPEALSDRIAKRLEDLGRPARRMDKEEALAYARATARPEDLLLFMGAGDVTLLARRLVHEG	soluble
MNFPWRDGNRVELLINGEEYFPRLFQCIAEARREILLETFIIFEDEVGRQLQEALSAAAERGVEVQVTVDGYGTASLSPDYLARLTASGVRVHLFDPRPRLLGMRTNLFRRLHRKLVVIDRRQAFVGGINYGEDHLVRRGNMAKQDYAVRVEGPVVRDIRQACLALLEPDADYPPLRPSGAGQPARVRLVIRDNDQSSDDIEREYLQAIRQARRRLLIANAYFFPGYRLLRELRDAARRGVRVDLVLQGMPDMPLVRLCSRLLYDYLLREGVRIHEYCQRPLHGKVAVIDDDWSTIGSSNLDPLSLSLNLEANLVIRDVAFNGQLYQHLRELARRHCRRISRRHARRGYWWRAPLIFLGFHFSRHFPAIAGWVPAHLPRLKSLEPRPSRRWQERQGQRGNP	not soluble
MTYDYVIVGGGIVGVSTGWQLKRRYPEKSVLLIEKEAGFSRHQTGHNSGVIHAGVYYAPGSLKADFCKRGVERTLAFCAQHNIPVENCGKLLVATNEQELERMHALYDRCLQNQIDVEKLDAAQLKLAEPNIRGLGAILVKATSIVNYRLVTEKMAEAFMQLGGDVKIGTEVVGLEETPSSITLTCQQKNQRVSYQAKFLVTCSGLMADRLTKMLGLPTDFQIIPYRGEYYRLAPKHNQVVRHLIYPIPDPELPFLGVHLTRMIDGCVTVGPN	not soluble
MTVSDHPQTVSQPDPESESRPSKTRLKQEMHALQALGERLVELEPARIAELDLPEKLAEALLEARKITSHGARRRHLQFIGKLMRAVDPLPVQEKLDAWQHTGMRHTAWLHQLERWRDRLISDETAVTEFVQTYPHTDVRQLRTLLRNIEKEKLAGKPPHNFRALFQLLRQIIPEIPG	not soluble
MAGDPMNEEQRKASSVDVLAERDKKAEKDYSKYFEHVYQPPNLKEAKKRGKQEVRYNRDFQIDEKYRGMGNERTFLIKTYGCQMNAHDTEVIAGILEALGYQATTDINTADVILINTCAIRENAENKVFSEIGNLKHLKKERPDILIGVCGCMSQEESVVNKILKSYQNVDMIFGTHNIHHLPEILEEAYLSKAMVVEVWSKEGDVIENLPKVREGNIKAWVNIMYGCDKFCTYCIVPFTRGKERSRRPEDIIDEVRELAREGYKEITLLGQNVNSYGKDLQDIEYDLGDLLQAISKIAIPRVRFTTSHPWDFTDHMIDVISEGGNIVPHIHLPVQSGNNAVLKIMGRKYTRESYLDLVKRIKDRIPNVALTTDIIVGYPNESEEQFEETLTLYDEVGFEHAYTYLYSQRDGTPAAKMKDNVPLNVKKERLQRLNKKVGHYSQIAMSKYEGQTVTVLCEGSSKKDDQVLAGYTDKNKLVNFKAPKEMIGKLVEVRIDEAKQYSLNGSFVKEVEPEMVIQLEHHHHHH	soluble
MGSDKIHHHHHHMPNPTRAFLLGPLLKGVSRSFYLTLRVLPAGMRDPIGLAYLLARAADTIADTSLIAPQRRLTLLLSLREQVNGATDDAALFQRMAAEVAGQQVQSDEKVLLESLGPALDVLSQLNEFDRKAVREIVSTLTEGMEFDLRTFPDERSGQIAALREYDELDRYTYLVAGCVGEFWTTMTYAHMPGTLKERADVMARRGVRFGKALQMTNVLRDCGKDLRIGRCYLPQTMLDRYGLSPQDLLRPDNSVRARPLMIELLRKTVDHFREALDYTLAIPASAVRLRLASLWPILIGLETLILLADNDAWLDPQKVSKVRRNKVYQIIASSLLLVPSNGLVRHAVERRIRQIEARF	not soluble
MTEHLLAMNQKLKNPDEALSLFGNQDSFLKLMEKDLNLNIITRGETIYVSGDDESFQIADRLLGSLLALIRKGIEISERDVIYAIKMAKKNELEYFESMYEEEITKNAKGKSIRVKTMGQREYVAAMKRNDLVFGIGPAGTGKTYLAVVKAVHALKNGHIKKIILTRPAVEAGESLGFLPGDLKEKVDPYLRPLYDALHDVLGADHTERLMERGIIEIAPLAYMRGRTLDDAYVILDEAQNTTPAQMKMFLTRLGFSSKMIITGDVSQIDLPKGVKSGLAVAKEMLKGIDGISMIELDQTDVVRHPLVAKIIEAYDKQN	not soluble
MGSDKIHHHHHHMEIELKTLGNYKAILGESPVYDREGNRLFWVDIDGKKVIVNNLDTNEEKYYDTPDLVTSLCLIDYKRIIVTLRHGFHTLNLTTGEITPYLELENNGENRFNDGKCDIRDRYWAGTMNLHIENPKPTASLYKLEGQRLTKVLDKLYRSNGLGWDPDNKLFYLIDTPLRKVFQFDFDKDKGDIYNKRIVMDFKYEPGRPDGMTIDEEGYLWIAHSAGGKVSRWNPKNGEKVSEIKLPVLYVSSVTFGSPEMNQIFITTMSKGGEPLAGRLFTAKMNIKGLQSYKFLT	not soluble
MRGIVTIDGPSASGKSSVARRVAAALGVPYLSSGLLYRAAAFLALRAGVDPGDEEGLLALLEGLGVRLLAQAEGNRVLADGEDLTSFLHTPEVDRVVSAVARLPGVRAWVNRRLKEVPPPFVAEGRDMGTAVFPEAAHKFYLTASPEVRAWRRARERPQAYEEVLRDLLRRDERDKAQSAPAPDALVLDTGGMTLDEVVAWVLAHIRR	soluble
GPGSMAVAAAAAAQTVAPRPPMQIGRADIAQMVASNPHVPTFSLPMNRQLEREFRTFRPVLIIAPLSTLPHWASEFQRFSRRHTAAAVSPCPGGVDAAERFTVYVLNGPRSERESRMGELLAHVERLTQQPPTPGGASGATPATPVVVIPHDMLTKPLRGALRQIRRVDWQVVAIDEAQRIKCARSFLFKKVCGLHSVSRRVLTGHTVADQHDGALPCSCAFRHRTRSSRVSCLSSWIAHCSPQVGRARWRIASCASSCAAVLIDFRCRSSCGVRGAS	soluble
MGSVEIPTKVLTNTSSQLKMPVVGMGSAPDFTCKKDTKDAIIEAIKQGYRHFDTAAAYGSEQALGEALKEAIELGLVTRDDLFVTSKLWVTENHPHLVIPALQKSLKTLQLDYLDLYLIHWPLSSQPGKFSFPIDVADLLPFDVKGVWESMEESLKLGLTKAIGVSNFSVKKLENLLSVATVLPAVNQVEMNLAWQQKKLREFCNAHGIVLTAFSPVRKGASRGPNEVMENDMLKEIADAHGKSVAQISLRWLYEQGVTFVPKSYDKERMNQNLRIFDWSLTKEDHEKIAQIKQNRLIPGPTKPGLNDLYDD	soluble
MGHHHHHHSHLEDFFKNMVKSADGVIVSGVKDVDDFFEHERTFLLEYHNRVKDASAKSDRMTRSHKSAADDYNRIGSSLYALGTQDSTDICKFFLKVSELFDKTRKIEARVSADEDLKLSDLLKYYLRESQAAKDLLYRRSRSLVDYENANKALDKARAKNKDVLQAETSQQLCCQKFEKISESAKQELIDFKTRRVAAFRKNLVELAELELKHAKGNLQLLQNCLAVLNGDT	not soluble
MIEFRNVSKVYPNGTKGLNNINLKIQKGEFVVMVGLSGAGKSTLLRSVNRLHEITEGEIMIEGESITAAKGKGLRRMRRDIGMIFQSFNLVKRSTVLKNVLAGRVGYHSTLRTTLGLFPKEDLELAFQSLKRVNILEKAYARADELSGGQQQRVSIARALAQEAKIILADEPVASLDPLTTKQVLEDLKKINEDFGITTIVNLHSIDLARQYATRIIGLHAGEIVFDGLVEEATDEKFAEIYGDVVQKSELLEVAVK	not soluble
MNHQSYSAPTQAVAANTHLIYSTEQGGAVSPTPQKSIGSIADYDPMNGQWGTAAAQPRNSEKLGYLKAQVDKGPARFCADFAGAPPPSSNSISSTSPHSTLSSPQSTISPTGKAGFAVKAIYDYAAADKDEISFLEGDIIVNCEKIDDGWMTGTVQRTLQWGMLPANYVQPHKLPTGLHRLS	not soluble
MSLTIGIWILGDQLWSGQTALKSHQGDRSQVPVLLIESAEFARQRPYHRQKLVLVWSAMRHFAEDLRAEGWSVTYEIAADFLTPLHHWLKTQGVSHLQVMAPGDRPFEAWLKSLTLPCELTLLPNNHFLWSREDFSAWAGDRKRLLLEDFYRAGRKRWQILMVDDQPVGGRWNFDQDNRKPAKKNLSPPKPLSFPPDDITQQVIERIEQLNLPGYGQLSGFQWGEGHHHHHH	soluble
